B1: library; numbered along this chain (parent)
chain: MATDAALRRLLRLHRTEIAVAVDSAFPLLHALADHDVVPEDKFQETLHLKEKEGCPQAFHALLSWLLTQDSTAILDFWRVLFKDYNLERYGRLQPILDSFPKDVDLSQPRKGRKPPAVPKALVPPPRLPTKRKASEEARAAAPAALTPRGTASPGSQLKAKPPKKPESSAEQQRLPLGNGIQTMSASVQRAVAMSSGDVPGARGAVEGILIQQVFESGGSKKCIQVGGEFYTPSKFEDSGSGKNKARSSSGPKPLVRAKGAQGAAPGGGEARLGQQGSVPAPLALPSDPQLHQKNEDECAVCRDGGELICCDGCPRAFHLACLSPPLREIPSGTWRCSSCLQATVQEVQPRAEEPRPQEPPVETPLPPGLRSAGEEVRGPPGEPLAGMDTTLVYKHLPAPPSAAPLPGLDSSALHPLLCVGPEGQQNLAPGARCGVCGDGTDVLRCTHCAAAFHWRCHFPAGTSRPGTGLRCRSCSGDVTPAPVEGVLAPSPARLAPGPAKDDTASHEPALHRDDLESLLSEHTFDGILQWAIQSMARPAAPFPS

Variants of: B1
Test: AIRE transcriptional activation functional score (insulin promoter-GFP; nonsense median 0, synonymous median 1) (normalised score); higher = higher AIRE activity (more reporter activation)
Conditions: with insulin promoter-GFP reporter in HEK293
Procedure, shortened: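 Flp-In T-REx HEK293 landing-pad cells carrying an insulin core promoter-GFP reporter received codon-optimized AIRE NNN-codon libraries (three regions) through Bxb1 recombinase. Sorting of mCherry+, BFP− integrants took place at day 7, followed by 7 days of expansion and tile-sequencing of top 10% GFP and unselected integrant populations. A functional score was derived from select versus non-select variant enrichment with wild type subtracted. Values from variants reaching 10 counts per million in non-select were set to nonsense median 0 and synonymous median 1 and averaged over biological replicates.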

AIRE transcriptional activation functional score of substitutions, site by site:
V362: I 1.32, W 1.24, R 1.14, A 1.13, H 0.807, Y 1.31, T 0.915, N 1.3, C 0.914, F 0.981, Q 1.16, S 1.07, L 0.999, P 0.988, D 1.3, E 1.07, K 1.11, M -0.739, G 1.02
Q358: S 1.04, P 1.05, Y 1.04, V 1.07, N 1.18, R 1.17, T 0.929, W 1.27, M 1.12
P367: F 1.13, C 1.47, E 1.46, G 0.153, A 0.781, D 0.924, I 1.46
L366: N 0.777, S 0.837, M 0.554, V 0.996, E 1.32, G 0.607, R 1.1, C 0.406, T 1.17, F 1.02, H 1.21, W 1.29, I 0.894, Q 0.884, K 1.37, Y 0.821, A 0.656, P 1.13, D 0.846
P361: E 0.976, H 1.14, V 1.21, A 1.01, K 1.12, R 0.983, M 1.3, D 1.15, G 1.21, Q 1.18, C 1.27, I 1.09, L 1.07, F 1.18, Y 1.13, N 0.778, T 1.12, S 1.21, W 1.29
E359: L 1.01, T 0.92, G 1.02, F 1.18, D 0.954, Q 0.92, C 1.11, M 1.08, K 0.82, S 1.27, V 1.08, A 0.785, W 1.24, I 1.14, Y 1.11, H 0.97, N 0.928, R 1.02, P 0.935
T364: I 0.829, A 0.985, M 1.64, D 0.191, N 0.588, P 0.694, F 0.115, H 1.07, Y 1.11, Q 0.914, L 1.22, E 0.981, W 1.73, K 0.737, S 0.643, V 0.952, G 0.32, R 0.983
E363: V 1.14, A 1.1, W 1.59, L 1.29, D 0.917, G 1.02, S 1.04, H 1.19, T 1.29, R 1.21, M 1.7, F 1.34, C 1.27, N 1.09, Q 0.775, P 0.843, I 1.02, Y 1.28, K 1.09
P360: R 1.02, D 0.792, H 1.1, A 0.888, L 1.06, V 0.911, S 0.994, C 1.08, T 0.775, W 1.38, Q 0.786, F 1.2, K 0.715, N 1, Y 1.2, I 1.13, G 1.16, E 1.22, M 1.19
P365: R 1.28, Q 0.92, L 1.07, A 1.05, N 0.389, M 1.49, S 1.14, W 1.45, C 1.05, G 0.47, E 1.33, D 0.214, Y 1.75, V 0.952, I 0.733, F 1.36, H 0.594, K 1.17, T 0.843

From the supplement of paper PMC12667976
